Tested on: MS2 coat protein
Assay: apparent KD of MS2 coat protein; higher = weaker reporter binding
Conditions: Eterna round: R107
Summary of the method: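 For every design, apparent KD is the median of normalised binding-curve fits from its clusters. The RNA switches were transcribed on-chip from Illumina sequencing clusters and titrated with SNAP-549-labelled MS2 coat protein (twofold steps, 0.7 or 1.5 nM to 3 µM; 0.8–1.5 h to 10–20 min per step). Titrations used 100 mM Tris-HCl pH 7.5, 80 mM KCl, 4 mM MgCl2, without or with constant ligand.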

[1] = input ligand: theophylline 20 uM
[2] = input ligand: theophylline 2 mM
[3] = input ligand: tryptophan 2.4 mM

GUCCUCGACACGGCCGCCACUGGCUCGCCUGUUGGCGCCGACCCACAUGAGGAUCACCCAUGUUCCAGGACCGGGUGUCACAGCA [theeternabot_sameState_MS2_Trp_B_42]
apparent KD of MS2 coat protein (input ligand: arginine 13.2 mM): 64.6 nM
apparent KD of MS2 coat protein [1]: 312 nM
apparent KD of MS2 coat protein [2]: 311 nM

UGUAUGUGAAGUGAUACCAGUCCAUAAACUGGAACAUGAGGAUCACCCAUGUAAUGGGUGGACCCUUGGCAGCACUUCUCAUACU [First try]
apparent KD of MS2 coat protein (input ligand: arginine 13.2 mM): 48 nM
apparent KD of MS2 coat protein [1]: 468 nM
apparent KD of MS2 coat protein [3]: 190 nM

AGACAUGAGGAUCACCCAUGUAGCAUGGAUACCAGAUGUAGAUUUGUCCCUUGGCAGCUGUGGUAAAGUGAUGCAUUGCUCCUAG [Exclusion - Theophylline A (Freestyle 4)]
apparent KD of MS2 coat protein (input ligand: arginine 13.2 mM): 34.4 nM
apparent KD of MS2 coat protein [1]: 61.5 nM
apparent KD of MS2 coat protein [3]: 33.3 nM

GGCACAUAGUCGGCCGCCACUAGGCUGUAGUGGGAGGACAUGAGGAUCACCCAUGUAUUUGGUACUAGGACCGGGACUAUGUGCC [Lion]
apparent KD of MS2 coat protein (input ligand: arginine 13.2 mM): 62.3 nM
apparent KD of MS2 coat protein (input ligand: none): 191 nM
apparent KD of MS2 coat protein [1]: 259 nM
apparent KD of MS2 coat protein [2]: 274 nM
apparent KD of MS2 coat protein [3]: 258 nM

AUAACAUGAGGAUCACCCAUGUAAGCUGAAGGAGCGCUGGAAACAGCAGGUAGGUCGCAGCAUGUUUCCAAUCCUCAUGGAAACA [(M1)-(M2)-(Arg1)-(Arg2)-(A)'-(M)'-(A)''_Design9]
apparent KD of MS2 coat protein (input ligand: arginine 13.2 mM): 53.4 nM
apparent KD of MS2 coat protein (input ligand: none): 152 nM
apparent KD of MS2 coat protein [1]: 159 nM
apparent KD of MS2 coat protein [2]: 136 nM
apparent KD of MS2 coat protein [3]: 105 nM

AAUAACAUGAGGAUCACCCAUGUAACCGAAGGAGCGGCAAUAAAGCCAGGUAGGUCGCGGAAUAACAUGAGGAUCACCCAUGUAA [Exclusion Arginine A]
apparent KD of MS2 coat protein (input ligand: arginine 13.2 mM): 55.5 nM
apparent KD of MS2 coat protein (input ligand: none): 138 nM
apparent KD of MS2 coat protein [1]: 112 nM
apparent KD of MS2 coat protein [2]: 125 nM
apparent KD of MS2 coat protein [3]: 94.7 nM

UGACCCUUCACGGCCGCCACUCAUUUUAAGUAGAGAGAGUACAUGAGGAUCACCCAUGUGAGAGAGAGGACCGGGUGAGAUGUUG [ss-trypB-0(N)]
apparent KD of MS2 coat protein (input ligand: arginine 13.2 mM): 15.5 nM
apparent KD of MS2 coat protein (input ligand: none): 16.3 nM
apparent KD of MS2 coat protein [1]: 30.8 nM
apparent KD of MS2 coat protein [2]: 16.8 nM
apparent KD of MS2 coat protein [3]: 15.4 nM

AUGCGGUGCGGAAGGAGCGAGUUUGCCUAUUUACAUGAGGAUCACCCAUGUCCUAAUGGGACUCAGGUAGGUCGCCGUUGUUGCA [Same State Arginine B GF30]
apparent KD of MS2 coat protein (input ligand: arginine 13.2 mM): 42 nM
apparent KD of MS2 coat protein (input ligand: none): 45 nM
apparent KD of MS2 coat protein [1]: 71.4 nM
apparent KD of MS2 coat protein [2]: 47.9 nM
apparent KD of MS2 coat protein [3]: 41.6 nM

UAUUUGGUGCGCGAGCGUUGGAUAAUUGAUACCAGUGAAGAAGAGCGCCCUUGGCAGCGAAUCCUAACAUGAGGAUCACCCAUGU [5.S]
apparent KD of MS2 coat protein (input ligand: arginine 13.2 mM): 38.2 nM
apparent KD of MS2 coat protein [1]: 63.2 nM
apparent KD of MS2 coat protein [3]: 41.4 nM

CGAUAUAUAGCGGCCGCCACUUACUCAUGAGGUAACAACAUGAGGAUCACCCAUGUUUGAGGAUCAAGGACCGGGCUAUGUAUCG [AstrosSSTryB#14]
apparent KD of MS2 coat protein (input ligand: arginine 13.2 mM): 24.9 nM
apparent KD of MS2 coat protein [1]: 32 nM
apparent KD of MS2 coat protein [2]: 29.4 nM

GCUAGUGGCAGAAGGAGCGACAUUUUAAGUGGUCGAUACAUGAGGAUCACCCAUGUACUAUGUCAGGUAGGUCGCUGCCACUAGC [EAB NP+V+V2 #3 +-Same Structure]
apparent KD of MS2 coat protein (input ligand: arginine 13.2 mM): 39.1 nM
apparent KD of MS2 coat protein (input ligand: none): 34.8 nM
apparent KD of MS2 coat protein [1]: 38.8 nM
apparent KD of MS2 coat protein [2]: 42.9 nM
apparent KD of MS2 coat protein [3]: 34 nM

GGGCGUGUGGCGCGGCGUGCUCCGCUCCGUCGAGGACCGGUACGGCCGCCACUCGACAUGAGGAUCACCCAUGUGCGAGCUCGCG [#1 Exclusion - Tryptophan A Attempt #11 (HarryS)]
apparent KD of MS2 coat protein (input ligand: arginine 13.2 mM): 17.6 nM
apparent KD of MS2 coat protein (input ligand: none): 33.8 nM
apparent KD of MS2 coat protein [1]: 35.6 nM
apparent KD of MS2 coat protein [2]: 44.6 nM
apparent KD of MS2 coat protein [3]: 154 nM

ACUAGUUGUGCAGAUACCAGGCAUGAGGAUCACCCAUGUUUGGGAUGUUCGCAUCUUCCUGUCCCUUGGCAGCUGUACAUCUAGA [Omei Theo B Exc v6]
apparent KD of MS2 coat protein (input ligand: arginine 13.2 mM): 49.9 nM
apparent KD of MS2 coat protein (input ligand: none): 48.5 nM
apparent KD of MS2 coat protein [1]: 167 nM
apparent KD of MS2 coat protein [2]: 31.5 nM
apparent KD of MS2 coat protein [3]: 150 nM

AAACUGGGUGUAAAAUAAAUAAUCACUGAUACCAGACUAUGAGAUGUCCCUUGGCAGCAGAAACAUGAGGAUCACCCAUGUAAUA [JR_Nu_ExcTheophyA_Sub026]
apparent KD of MS2 coat protein (input ligand: arginine 13.2 mM): 19.6 nM
apparent KD of MS2 coat protein [1]: 24.5 nM
apparent KD of MS2 coat protein [3]: 25.2 nM

GAGCUGAUGUAGAAAUUUUAUUUAUGAGAUACCAGUACAGAAAUGUACCCUUGGCAGCUCAAUUUUACAUGAGGAUCACCCAUGU [Ex Theophylline A 13]
apparent KD of MS2 coat protein (input ligand: arginine 13.2 mM): 16.8 nM
apparent KD of MS2 coat protein [1]: 12.5 nM
apparent KD of MS2 coat protein [3]: 11.5 nM

UCUUUCUAUGUAGAUACCAGCAUGUUAUAUUUCUAAUGACAUGAGGAUCACCCAUGUAAAUGCCCUUGGCAGCUGCGUUUUCUUU [SSTHB #5]
apparent KD of MS2 coat protein (input ligand: arginine 13.2 mM): 14.2 nM
apparent KD of MS2 coat protein [1]: 20.2 nM
apparent KD of MS2 coat protein [3]: 15.2 nM

UAUGUGAUAGUCGUACUCUCACACUGAGAAGGAGCGCGAUAGUUCGCAGGUAGGUCGCUCAGUUAUACAUGAGGAUCACCCAUGU [Isrice]
apparent KD of MS2 coat protein (input ligand: arginine 13.2 mM): 25.3 nM
apparent KD of MS2 coat protein (input ligand: none): 32.6 nM
apparent KD of MS2 coat protein [1]: 32.9 nM
apparent KD of MS2 coat protein [2]: 32.4 nM
apparent KD of MS2 coat protein [3]: 26.4 nM

GCUGGACUUUCGGCCGCCACUGAGAGAGUCGUGUGAACAUGAGGAUCACCCAUGUAAUAUAUAUACAGGACCGGGAGGGUUGUGC [4.P]
apparent KD of MS2 coat protein (input ligand: arginine 13.2 mM): 11.2 nM
apparent KD of MS2 coat protein [1]: 14.7 nM
apparent KD of MS2 coat protein [2]: 11.6 nM

GUUAUAUGAAAACAUAUAACAGUGGGUGAACGAGGACCGGUACGGCCGCCACUCGGACAUGAGGAUCACCCAUGUCCAUGUGAAA [AstrosExyTryA#6]
apparent KD of MS2 coat protein (input ligand: arginine 13.2 mM): 15.2 nM
apparent KD of MS2 coat protein [1]: 17.4 nM
apparent KD of MS2 coat protein [2]: 22 nM
